Data published in article PMC12704277.

Tests used:
[1] = target: NCP-601 (nucleosome core particle with H3K9me3 and a single hemimethylated CpG site within the 3′-Widom 601 sequence) (human) (UniProt P04908); assay: thermal stability assay (SYPRO Orange); 0.2 mg/ml protein; 20 mM Tris–HCl pH 7.5, 150 mM NaCl, 1 mM DTT; heated from 25 °C to 90 °C
[2] = target: NCP-5′linker (nucleosome core particle with H3K9me3 and a single hemimethylated CpG site in the 5′-linker DNA) (human) (UniProt P04908); assay: as above
[3] = target: NCP-3′linker (nucleosome core particle with H3K9me3 and a single hemimethylated CpG site in the 3′-linker DNA) (human) (UniProt P04908); assay: as above
[4] = target: NCP-601 (nucleosome core particle with H3K9me3 and a single hemimethylated CpG site within the 3′-Widom 601 sequence) (human) (UniProt P04908); assay: mass photometry; UHRF1 and NCP mixed at a UHRF1–NCP ratio of 1:4, on ice 30 min; final 25 nM in 20 mM Tris–HCl pH 7.0, 150 mM NaCl
[5] = target: NCP-5′linker (nucleosome core particle with H3K9me3 and a single hemimethylated CpG site in the 5′-linker DNA) (human) (UniProt P04908); assay: as above
[6] = target: NCP-3′linker (nucleosome core particle with H3K9me3 and a single hemimethylated CpG site in the 3′-linker DNA) (human) (UniProt P04908); assay: as above

- Tm (denaturation temperature of UHRF1 bound to the NCP) [1]: 42.8 °C
- Tm (denaturation temperature of UHRF1 bound to the NCP) [2]: 44.2 °C
- Tm (denaturation temperature of UHRF1 bound to the NCP) [3]: 44.8 °C
- stoichiometry N [4]: 1
- stoichiometry N [5]: 1
- stoichiometry N [6]: 1
Substance: UHRF1 (ubiquitin-like with plant homeodomain and RING finger domain 1), full-length human, WT (from UniProt Q96T88 1-793) (enzyme)
